Test results reported in PMC12186490, “Environmental pH controls antimicrobial production by human probiotic Streptococcus salivarius” (Journal of Bacteriology, 2025).

Tests used:
[1] = biological target: NRPS regulator NrpR (amino acids 1-285), recombinant, untagged (Streptococcus salivarius K12); experiment: SEC; Superdex 200 10/300 GL; 20 mM Tris-HCl pH 8.5, 200 mM NaCl, 1 mM TCEP, 5% glycerol; 1 mg/mL NrpR, room temperature; mass standards
[2] = biological target: fluorescein-labeled synthetic NRPS-inducing peptide (NIP) (Streptococcus salivarius K12); experiment: fluorescence polarisation; 1 nM fluorescein-labeled NIP titrated with purified NrpR; 20 mM potassium phosphate, 75 mM NaCl, 2% DMSO, 1 mM EDTA, 0.0005% Tween 20; binding buffer adjusted to near neutral pH (pH 6.5 to 7.5) or pH 5.0
[3] = biological target: NRPS regulator NrpR (amino acids 1-285), recombinant, untagged (Streptococcus salivarius K12)

## NRPS regulator NrpR (amino acids 1-285), recombinant, untagged (receptor)
[1]
  stoichiometry N: 2
[2]
  fold decrease in affinity against pH 5.5: > 2 fold

## fluorescein-labeled synthetic NRPS-inducing peptide (NIP)
[3]
  sarD transcript level (qRT-PCR) in the nip* mutant with 100 nM synthetic NIP at pH 5.5 or 6.0, against the unsupplemented mutant; no significant induction at pH 6.5-7.5 or pH 5.0: > 75 fold
